The values below come from patent US20160215035A1.

Holding throughout (experiment): cell-based or functional assay
Test [1] concerns the target IL-4Rα (UniProt P24394).
In test [2] the target is Type I IL-4R (UniProt P24394).
For test [3], the target named is IL-4Rα (UniProt P24394). The source holds these as a separate data set.

Read-outs that look alike come from different tables or passages of the source. Where only a bound is given, the exact number is not on record here.

Chain of UniProt P24394 (P24394 26-825 limits assumed): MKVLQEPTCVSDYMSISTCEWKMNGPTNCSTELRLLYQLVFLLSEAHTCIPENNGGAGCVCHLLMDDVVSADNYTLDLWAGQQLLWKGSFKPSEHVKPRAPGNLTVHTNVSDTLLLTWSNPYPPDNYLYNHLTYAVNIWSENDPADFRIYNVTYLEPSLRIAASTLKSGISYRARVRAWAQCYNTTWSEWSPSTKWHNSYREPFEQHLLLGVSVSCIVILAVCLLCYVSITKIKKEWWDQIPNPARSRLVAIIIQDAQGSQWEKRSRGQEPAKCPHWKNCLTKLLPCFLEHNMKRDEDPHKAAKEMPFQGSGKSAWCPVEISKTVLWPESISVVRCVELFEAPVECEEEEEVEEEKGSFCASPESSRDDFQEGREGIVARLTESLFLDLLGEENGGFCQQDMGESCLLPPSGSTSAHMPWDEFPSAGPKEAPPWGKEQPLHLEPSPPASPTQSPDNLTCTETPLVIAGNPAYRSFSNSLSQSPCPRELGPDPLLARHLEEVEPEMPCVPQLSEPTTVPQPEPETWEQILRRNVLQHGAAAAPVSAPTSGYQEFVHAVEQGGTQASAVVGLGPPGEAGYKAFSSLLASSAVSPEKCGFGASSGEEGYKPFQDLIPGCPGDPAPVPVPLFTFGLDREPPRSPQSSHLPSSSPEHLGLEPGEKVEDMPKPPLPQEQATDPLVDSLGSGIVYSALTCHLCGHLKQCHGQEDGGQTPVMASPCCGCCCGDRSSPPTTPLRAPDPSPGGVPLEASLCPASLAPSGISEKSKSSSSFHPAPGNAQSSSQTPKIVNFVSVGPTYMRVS

In test [1], cpIL4-PE (from UniProt P11439 278-633) had an IC50 (ng/mL), cell count by trypan blue exclusion, KCCL871 cells of 1.5 ng/mL; an IC50 (ng/mL), cell count by trypan blue exclusion, KCCOR891 cells of 9 ng/mL; an IC50 (ng/mL), cell count by trypan blue exclusion, KCCTCM901 cells of 0.7 ng/mL; an IC50 (ng/mL), cell count by trypan blue exclusion, YCUM862 cells of 0.6 ng/mL. In test [1], this molecule returned an IC50 (ng/mL), cell count by trypan blue exclusion, YCUM911 cells of 4.5 ng/mL and an IC50 (ng/mL), cell count by trypan blue exclusion, YCUT891 cells of 8 ng/mL. The IC50, inhibition of [3H]-thymidine incorporation in HH cells (48 h) in test [2] turned out to be 362 ng/mL.

B1: cpIL-4BAD fusion protein (protein)
chain: MDTTEKETFCRAATVLRQFYSHHEKDTRCLGATAQQFHRHKQLIRFLKRLDRNLWGLAGLNSCPVKEANQSTLENFLERLKTIMREKYSKCSSGGNGGHKCDITLQEIIKTLNSLTEQKTLCTELTVTDIFAASGSFQIPEFEPSEQEDSSSAERGLGPSPAGDGPSGSGKHHRQAPGLLWDASHQQEQPTSSSHHGGAGAVEIRSRHSAYPAGTEDDEGMGEEPSPFRGRSRAAPPNLWAAQRYGRELRRMSDEFVDSFKKGLPRPKSAGTATQMRQSSSWTRVFQSWWDRNLGRGSSAPSQ
In test [3], B1 yielded an IC50 (ng/mL), cell count by trypan blue exclusion, KCCL871 cells of 0.5 ng/mL; an IC50 (ng/mL), cell count by trypan blue exclusion, KCCOR891 cells of 0.15 ng/mL; an IC50 (ng/mL), cell count by trypan blue exclusion, KCCTCM901 cells of 1 ng/mL; an IC50 (ng/mL), cell count by trypan blue exclusion, YCUM862 cells of 1.1 ng/mL. For the same molecule, in test [3], the IC50 (ng/mL), cell count by trypan blue exclusion, YCUM911 cells stood at 0.2 ng/mL; the IC50 (ng/mL), cell count by trypan blue exclusion, YCUT891 cells worked out at 11 ng/mL; the IC50, 5-day cell viability assay on Daudi cells, with 100x excess IL-4 is > 1000 ng/mL; the IC50, 5-day cell viability assay on Daudi cells, without excess IL-4 turned out to be 0.3 ng/mL. Further, in test [3], the IC50, 5-day cell viability assay on U 251 cells, with 100x excess IL-4 is > 1000 ng/mL; the IC50, 5-day cell viability assay on U 251 cells, without excess IL-4 worked out at 0.3 ng/mL; the IC50, colony formation assay on U 251 cells (10 days) is 5 ng/mL; the IC50, killing of Daudi cells (viable cell count, trypan blue exclusion, 5 days) was 0.1 ng/mL. The IC50, killing of U 251 cells (viable cell count, trypan blue exclusion, 5 days) in test [3] is 0.6 ng/mL.
